Results reported in US20140031525A1, “MUTANT G-PROTEIN COUPLED RECEPTOR PROTEINS AND METHODS FOR PRODUCING THEM” (Heptares Therapeutics Limited, priority 2011, published 2014).

Experiments:
[1] = test system: G proteins; experiment: G protein activation by the engineered receptor; format: biochemical
[2] = Thermostability assay of detergent-solubilised receptor by [3H]-ZM241385 binding; format: physicochemical, human; conditions: in 0.1% decylmaltoside, 30 min heating
Procedure: FIG. 1: Thermostability of the adenosine A2A receptor alone, in combination with T4 lysozyme fusion or with thermostabilising mutations. Receptors were solubilised from transiently transfected cells using 0.025% DDM. Samples were heated at the specified temperature for 30 minutes, quenched on ice and the amount of receptor remaining was determined by a single-point binding assay using 100 nM [^3H]-ZM-241,385. Data is shown for the wild type A2a receptor (circles), A2A-T4L (squares), A2A-StaR1 (previously Rant21, upright triangles), A2A-T4 engineered to include the A2A-StaR1 mutations in combination with the T4L fusion (A54L^2.52/T88A^3.36/K122A^4.43 N239A^6.41) (inverted triangles) and vs A2a-StaR2 (diamonds).
Transfected HEK293T cells were resuspended in ice cold buffer [50 mM Tris pH7.4; 400 mM NaCl; 1% DDM and protease inhibitors (Complete, Roche)]. After incubation for 1 h at 4° C., samples were centrifuged (16,000×g, 20 min, 4° C.) and the supernatant was detergent exchanged into 0.1% decylmaltoside (DM) from Ni-NTA resin.
Thermostability was assessed by incubating with [^3H]-ZM241385 radioligand (100 nM) at increasing temperatures for 30 min followed by a 5 minutes incubation on ice. Receptor bound and free radioligand were separated by gel filtration as previously described'

B1: A2A-StaR2: human adenosine A2A receptor with mutations A54L, T88A, K122A, V239A, R107A, L202A, L235A, S277A (protein, UniProt P29274 1-412, looked up, variant A54L T88A K122A V239A R107A L202A L235A S277A)
Adenosine receptor A2a: MPIMGSSVYITVELAIAVLAILGNVLVCWAVWLNSNLQNVTNYFVVSLAAADILVGVLAIPFAITISTGFCAACHGCLFIACFVLVLAQSSIFSLLAIAIDRYIAIAIPLRYNGLVTGTRAAGIIAICWVLSFAIGLTPMLGWNNCGQPKEGKNHSQGCGEGQVACLFEDVVPMNYMVYFNFFACVLVPLLLMLGVYLRIFAAARRQLKQMESQPLPGERARSTLQKEVHAAKSAAIIAGLFALCWLPLHIINCFTFFCPDCSHAPLWLMYLAIVLAHTNSVVNPFIYAYRIREFRQTFRKIIRSHVLRQQEPFKAAGTSARVLAAHGSDGEQVSLRLNGHPPGVWANGSAPHPERRPNGYALGLVSGGSAQESQGNTGLPDVELLSHELKGVCPEPPGLDDPLAQDGAGVS
[1]
  G protein activation: no longer activated G proteins
[2]
  apparent thermostability: 47 °C
